Experimental data reported in the RNAGym collection of RNA variant scans (doi:10.7554/elife.80360).

B1: HDV Ribozyme (parent)
chain: GGCCGGCAUGGUCCCAGCCUCCUCGCUGGCGCCGGCUGGGCAACAUUCCGAGGGGACCGUCCCCUCGGUAAUGGCGAAUGGGACCCA

Variants of: B1
Experiment: self-cleavage, relative activity (ratio to wild type); higher = more cleavage; co-transcriptional

Compared with GGCCGGCAAGGUCCCAGCCUCCUCGCUGGCGCCGGCUGGGCAACAUUCCGAGGGGACCGUCCCCUCGGUAAUGGCGAAGGGGACCCA, GGCCGGCAUGGUCCCAGCCUCCUCGCUGGCGCCGGCUGAGCACCAUUCCGAGGGGACCGUCCCCUCGGUAAUGGCGAAUGGGACCCA is lower in self-cleavage: 0.529 for the first, 0.185 for the second.

Going from GGCCGGCAUGGUCCCAGCCUCCUCGCUGGCGCCGGCUGGGCAACAUUACGAGGGGACCGUCCCCUCGGUAAUGGCGAAUGGGCCCCA to GGCCGGCAUGGUCCCAGCCUCCUCGCUGGCGCCCGCUAGGCAACAUUCCGAGGGGACCGUCCCCUCGGUAAUGGCGAAUGGGACCCA, the self-cleavage falls from 0.317 to 0.0959.

First: GGCCGGCAUGGUCCCAGCCUCCUCGCUGGCGCCGGCUAGGCAACAUUCCGAGGGGACCGUCCCCUCGGUAAUGACGAAUGGGACCCA
Second: GGCCGGCAUGGUCCCAGCCUCCUCGCUGUCGCCGGCUGGGCAACAUACCGAGGGGACCGUCCCCUCGGUAAUGGCGAAUGGGACCCA
The self-cleavage of the first is higher: 0.0755 for the first, 0 for the second.

Going from GGCCGGCAUGGUCACAGCCUCCUCGCUGGCGCCGGCUGGGCAACAUUCCGAGGGGACCGUCCCCUCGGUAAUGGCGAAUGUGACCCA to GGCCGGCAUGGUCCCAGCCUCCUCGCUGGCGCCGGCUGGGCAACAUUCCGGGGGGACCGUCCCCUCGGUACUGGCGAAUGGGACCCA, the self-cleavage falls from 1.15 to 0.458.

First: GGCCGGCAUGGUCCCAGCCCCCUCGCUGGCGCAGGCUGGGCAACAUUCCGAGGGGACCGUCCCCUCGGUAAUGGCGAAUGGGACCCA
Second: GGCCGGCCUGGUCCCAGCCUCCUCGCUGGCGCCGGCUGGGCAACAUUCCGAGGGGACCGUCCCCUCGGUAAUGGCAAAUGGGACCCA
The self-cleavage of the first is lower: 0.0665 for the first, 0.95 for the second.

Compared with GGCCGGCAUGGUCCCAGCCUCCGCGCUGGCGCCGGCUGGGCAACAUUCAGAGGGGACCGUCCCCUCGGUAAUGGCGAAUGGGACCCA, GGCCGGCAUGGUCCCAGCCUCCUCGCUGGCGCCGGCUGGGCAACAUUCCGAGGGGACCGUCCCCUUGGUAAUGGCGAAUGGGUCCCA is lower in self-cleavage: 0.831 for the first, 0.43 for the second.

Going from GGCCGGCAUGGUCCCAGCCUCCUCGCUGGCUCCGGCUGGGCAACAUUCCGAGGGGACCGUCCACUCGGUAAUGGCGAAUGGGACCCA to GGCCGGCAUGGUCCCAACCUCCUCGCUGGCGCCGGCUGGGCAACAUUCCGAGGGGACCGUCCCCUCGGUAAAGGCGAAUGGGACCCA, the self-cleavage falls from 0.468 to 0.219.

Going from GGCCGGCAUGGUCCCAGCCUCCUCGCUGGCGCCGGCUGGGCAACAUUCCGAGGGGACCGUCCCCUCGGUUAUGGCGAAUGGGACGCA to GGCCGGCAUGGUCCCGGCCUCCUAGCUGGCGCCGGCUGGGCAACAUUCCGAGGGGACCGUCCCCUCGGUAAUGGCGAAUGGGACCCA, the self-cleavage falls from 0.724 to 0.569.

Compared with GGCCGGCAUGGUCCCAGCCUCCUCGCUGGCGCCGGCUGGGCAACUUUCCGAGGGGACCGUCACCUCGGUAAUGGCGAAUGGGACCCA, GGCCGGCAUGGUCCCAGCCUCCUCGCUGGCGCCGGAUGGGCAACAUUCCGAGGGGACCGUCUCCUCGGUAAUGGCGAAUGGGACCCA is lower in self-cleavage: 0.791 for the first, 0.175 for the second.

Compared with GGCCGGCAUGGUCCCAGCCUCCUCGCGGGCGCCGGCUGGGCAACAUUCCGAGGGGACCGUCCCCUCGGUAAUGGCGAGUGGGACCCA, GGCCGGCAUGGUCCCAGCCUCCUCGCUGGCGCCGACUGGGCAACAUUCCGAGGGGACCGUCCCCUCAGUAAUGGCGAAUGGGACCCA is lower in self-cleavage: 0.532 for the first, 0.328 for the second.

Compared with GGCCGGCAUGGUCCCAGCCUCCUCGCUGGCGUCGGCUGGGCAACAUUCCGAGGGGACCGUCCCCUCGUUAAUGGCGAAUGGGACCCA, GGCCGGAAUGGUCCCAGCCUCCUCGCUGGCUCCGGCUGGGCAACAUUCCGAGGGGACCGUCCCCUCGGUAAUGGCGAAUGGGACCCA is higher in self-cleavage: 0.776 for the first, 1.07 for the second.

First: GGCCGGCAUGGUCCCAGCCUCCUCGCUGGCGCCGGCUGGGCAACAUUCCGAGGGGACCGUCCACUCGGUAAUGGCUAAUGGGACCCA
Second: GGCCGGCAUGGUCCCACCCUCCUCGCUGGCGCCGGCUGAGCAACAUUCCGAGGGGACCGUCCCCUCGGUAAUGGCGAAUGGGACCCA
The self-cleavage of the first is higher: 1.15 for the first, 0.113 for the second.

Going from GGCCGGCAUGGUCCCAGCCUCCUCGCUGGCGCCCGCAGGGCAACAUUCCGAGGGGACCGUCCCCUCGGUAAUGGCGAAUGGGACCCA to GGCCGGCAUGGUCCCAGCCUCCUCGCUGGCGCCGGCUCGCCAACAUUCCGAGGGGACCGUCCCCUCGGUAAUGGCGAAUGGGACCCA, the self-cleavage falls from 0.297 to 0.0405.

Going from GGCCGGCAUGGUCCCAGCCUCCUCGCUGGCGCCGGCUGGGCAACAUUCCGAGGGGACCGUCCCUUCGGUAAUGGCGAGUGGGACCCA to GGCCGGCAUGGUCCCAGCCUCCUCGCUGGCGCCGGCUGGGCAACAUUCCGAGGCGACCGUCCCCUCGGUAUUGGCGAAUGGGACCCA, the self-cleavage falls from 0.813 to 0.731.

Compared with GGCCGACAUGGUCCCAGCCUCCCCGCUGGCGCCGGCUGGGCAACAUUCCGAGGGGACCGUCCCCUCGGUAAUGGCGAAUGGGACCCA, GGCCGGCAUGGUCCCAGCCUGCUCGCUGGCGCCGGCUGGGCAACAUUGCGAGGGGACCGUCCCCUCGGUAAUGGCGAAUGGGACCCA is lower in self-cleavage: 0.532 for the first, 0.115 for the second.

First: GGCCGGCAUGGUCCCAGCCUCCUCGCUGGCGCCGGCGGGGCAACAUUCCGAGGGGACCGUCCCCUCGGUAAUGGCGCAUGGGACCCA
Second: GGCCGGCAUGGUCCCAUCCUCCUCGCUGGCGCCGGCUGGGCAACAUUCCGAGGGGACCGUCCCCUCUGUAAUGGCGAAUGGGACCCA
The self-cleavage of the first is lower: 0.158 for the first, 0.609 for the second.

First: GGCCGGCAUGGUACCAGCCUCCUCGCUGGCGCCGGCUGGGCAACAUUCCGAGGGGACCGUCCCCUGGGUAAUGGCGAAUGGGACCCA
Second: GGCCGGCAUGGUGCCAGCCUCCUCGCUGGCGCCGGCUGGGCAACAUUCCGAGGGGACCGUCCCCUCGGUAAUGGCGCAUGGGACCCA
The self-cleavage of the first is higher: 0.378 for the first, 0.0615 for the second.

Going from GGCCGGCAUGGUCCCAGCCUCCUCGCUGGCGCCGGCUGGGCAUGAUUCCGAGGGGACCGUCCCCUCGGUAAUGGCGAAUGGGACCCA to GGCCGGCAUGGUCCCAGCCUCCUCGCUGGCGCCGGCUGGGCAACAUUCCGAGGGGCCCGUCCCCUCGGUAAUCGCGAAUGGGACCCA, the self-cleavage falls from 0.739 to 0.536.

Compared with GGCCGGCAUGGUCCCAGCCUCCUCGCUGGCGCCGGCUGGGCAACAUUCCGAGCGGACCGUCCCCUCCGUAAUGGCGAAUGGGACCCA, GGCCGGCAUGAUCCCAGCCUCCUUGCUGGCGCCGGCUGGGCAACAUUCCGAGGGGACCGUCCCCUCGGUAAUGGCGAAUGGGACCCA is lower in self-cleavage: 0.427 for the first, 0.194 for the second.

Going from GGCCGGCAUGGUUCCAGCCUCCUCGCUGGCGCCGGCUGGGCAACAUUCCGAGGGGACCGUCCCCUCGGUAAUGGCGAAUGGGCCCCA to GGCCGGCAUGGUCCCAGCCUCCUCGCUGGCGCCGGCUGGGCAACAUUCCGAGGGGACCGUCCCCUCGGUAAUGGCGAAUGCUACCCA, the self-cleavage falls from 0.344 to 0.287.

First: GGCCGGCAGGGUCCCAGCCUCCUCGCUAGCGCCGGCUGGGCAACAUUCCGAGGGGACCGUCCCCUCGGUAAUGGCGAAUGGGACCCA
Second: GGCCGGCAUGGUCCCAGCCUCCUCGCUGGCGCGGGCUGGGCAACAUUCCGAGGGGACCUUCCCCUCGGUAAUGGCGAAUGGGACCCA
The self-cleavage of the first is lower: 0.0573 for the first, 0.111 for the second.

First: GGCCGGCAUGGUCCCAGCCUCCUCGCUGGCGCCGGCUGGGCAACAUUCCGAGGGAACCGUCCCCUCGGUAAUGGCGAAUGCGACCCA
Second: GGCCGGCAUGGUACCAGCCUCCUCGCUGGCGCCGGCUGGGCAACAUUCCGAGGGGACCGACCCCUCGGUAAUGGCGAAUGGGACCCA
The self-cleavage of the first is higher: 0.312 for the first, 0.214 for the second.

Compared with GGCCGGCAUGGUCCCAGCCUCCUCGCUGGCGCCGGCUGGGCAACAUUCCGAGGGGACCGUCCCCUCGCUAAUGGCGAUUGGGACCCA, GGCCGGCAUGGUCCCAGCCUCCUCGCUGGCGCCGGCUAGGCAACAUUCCUAGGGGACCGUCCCCUCGGUAAUGGCGAAUGGGACCCA is lower in self-cleavage: 0.35 for the first, 0.157 for the second.

Going from GGCCGGCAUGAUCCCAGCCUCCUCCCUGGCGCCGGCUGGGCAACAUUCCGAGGGGACCGUCCCCUCGGUAAUGGCGAAUGGGACCCA to GGCCGUCAUGGUACCAGCCUCCUCGCUGGCGCCGGCUGGGCAACAUUCCGAGGGGACCGUCCCCUCGGUAAUGGCGAAUGGGACCCA, the self-cleavage falls from 0.0906 to 0.0875.

First: GGCCGGCAUGGUCCCAGCCUCCUCGCUGGCUCCGGCUGGGCAACAUUCCGAGGGGACCGUCCCCUCGGUAAUGGCGAAUGGGAACCA
Second: GGCCGGCAUGGUCCCAGCCUCCUCGUUGGCGCCGGCUGGGCAACAUUCCGAGGGGACCGUCCCCUCGGUAAUGGCGAAUGGGCCCCA
The self-cleavage of the first is lower: 0.146 for the first, 0.95 for the second.

First: GGCCGGCAUGGCCCCAGGCUCCUCGCUGGCGCCGGCUGGGCAACAUUCCGAGGGGACCGUCCCCUCGGUAAUGGCGAAUGGGACCCA
Second: GGCCGGCAUGGUCCCAGGCUCCUCGCUGGCGCCGGCUGGGCAACAUUCCGAGGGGACCGUCCCCUCGGUAAUGGCGAAUAGGACCCA
The self-cleavage of the first is lower: 0 for the first, 0.0563 for the second.

Compared with GGCCGGCAUGGUCCCAGCCUCCUCGCUGGCGCCGGCUGGGCAACAUUCCGAGGAGACCGUCCCCUCGGUAAUUGCGAAUGGGACCCA, GGCCGGCAUGGUCACAGCCUCCUCGCUGGCGCCGGCUGGGUAACAUUCCGAGGGGACCGUCCCCUCGGUAAUGGCGAAUGGGACCCA is higher in self-cleavage: 0.211 for the first, 0.539 for the second.

Going from GGCCGGCAUGGUCCCAGCCUCCUCGCUGGCGCCGGCUGGGCAACAUUCCGAGAGGACCGUCCCCUCGGUAAUGGCGAAUGGGACUCA to GGCCGGCAUGGUCCCAGCCUCCUCGCUGGCGCCGGCUGGGCAACAUUCCGAGGGGACCGUCCCCUCCGUAAUGGCGAAUGGGACACA, the self-cleavage falls from 0.872 to 0.7.

Going from GGCCGGCAUCGUCCCAGCCUGCUCGCUGGCGCCGGCUGGGCAACAUUCCGAGGGGACCGUCCCCUCGGUAAUGGCGAAUGGGACCCA to GGCCGGCAUGGUCCCAGCCUCCUCGCAGGCGCCGGCUGGGCAACAUUCCGAGGGGACCGUCCCCUCGGCAAUGGCGAAUGGGACCCA, the self-cleavage rises from 0.032 to 1.11.

First: GGCCGGCAUAGUCCCAGCCUCCUCGCUGGCGCCGGCUGGGCAACAUUCCGAGGGGACCCUCCCCUCGGUAAUGGCGAAUGGGACCCA
Second: AGCCGGCAUGGUCCCAGCCUCCUCGCUGGCGCCGGCUGGGCAACAUUCCGAGGGGACCGUCCCCUCGGUAGUGGCGAAUGGGACCCA
The self-cleavage of the first is higher: 0.684 for the first, 0.104 for the second.

First: GGCCAGCAUGGUCCCAGCCUCCUCGCUGGCGCCGGCUGGGCAACAUUCCGAGGGGACCGUCCCCUCGGUAAUGGCGAAUGGGAUCCA
Second: GGCCGGCACGGUCCCAGCCUCCUCGCUGGCGCCGGCUGGGCAACAUUCCGAGGGGACCGUCCCCUCGGUAAUGGCGAGUGGGACCCA
The self-cleavage of the first is lower: 0.117 for the first, 0.914 for the second.

Compared with GGCCGGCAUGGUCCCAGCCUCCUCGCUGGCGCCGGCUGAGCAACAUUCCGAGGGGACCGUCCCCUCGGUAAUGGCGAAAGGGACCCA, GGCCGGCAUGGUCCCAGCCUCCUCGCUGGCGCCGGCUGCGCAACAUUCCGAGGGGACCGUCCCCUCGUUAAUGGCGAAUGGGACCCA is higher in self-cleavage: 0.162 for the first, 0.246 for the second.
